# Test results taken from patent US20130164308A1 (RINAT NEUROSCIENCE, published 2013).
# Residue numbers refer to the chain shown, from its start. Names may count otherwise.
# B1: DF1.1 variant HCDR3-E5A (antibody, V domains shown)
# VH: QVQLVQSGAEVKKPGSSVKVSCKTSGGTFNNVAINWVRQAPGQGLEWMGGIIPGLDTPNYAQKFQGRVTITADKSTTSTYLELSSLRSDDTAVYYCAREMAVSGRWRPTEAFEIWGQGTMVTVSS
# VL: ETTLTQSPGTLSLSPGERATLSCRASQTISNNFVAWYQQKPGQAPRLLIYGASTRATGIPDRFSGSGSGTDFTLTISSLEPEDFAVYYCQQYGSSPYTFGQGTKVDIK
# B2: DF1.1 variant HCDR3-S7R (antibody, V domains shown)
# VH: B1 VH with A101E, S103R
# VL: B1 VL
# B3: DF1.1 variant HCDR3-G8R (antibody, V domains shown)
# VH: B1 VH with A101E, G104R
# VL: B1 VL
# B4: DF1.1 variant HCDR3-R9A (antibody, V domains shown)
# VH: B1 VH with A101E, R105A
# VL: B1 VL
# B5: DF1.1 variant HCDR3-R11A (antibody, V domains shown)
# VH: B1 VH with A101E, R107A
# VL: B1 VL
# B6: DF1.1 variant LCDR3-Q1A (antibody, V domains shown)
# VH: B1 VH with A101E
# VL: B1 VL with Q90A
# B7: DF1.1 variant LCDR3-G4R (antibody, V domains shown)
# VH: B1 VH with A101E
# VL: B1 VL with G93R
# B8: DF1.1 variant LCDR3-P7A (antibody, V domains shown)
# VH: B1 VH with A101E
# VL: B1 VL with P96A
# B9: DF1.1 variant LCDR3-T9R (antibody, V domains shown)
# VH: B1 VH with A101E
# VL: B1 VL with T98R
# B10: DF1.1 variant HCDR3-P12A/LCDR3-S6R (antibody, V domains shown)
# VH: B1 VH with A101E, P108A
# VL: B1 VL with S95R
# B11: DF1.1 variant HCDR3-P12A/LCDR3-Y8A (antibody, V domains shown)
# VH: B1 VH with A101E, P108A
# VL: B1 VL with Y97A
# B12: DF1.1 variant HCDR3-A15R/LCDR3-Y3A (antibody, V domains shown)
# VH: B1 VH with A101E, A111R
# VL: B1 VL with Y92A
# B13: DF1.1 variant HCDR3-W10A/LCDR3-Y3A (antibody, V domains shown)
# VH: B1 VH with A101E, W106A
# VL: B1 VL with Y92A
# B14: DF1.1 variant HCDR3-W10A/LCDR3-Y8A (antibody, V domains shown)
# VH: B1 VH with A101E, W106A
# VL: B1 VL with Y97A
# B15: DF1.1 variant HCDR3-P12A/LCDR3-Y3A (antibody, V domains shown)
# VH: B1 VH with A101E, P108A
# VL: B1 VL with Y92A
# Target: T1, S. aureus alpha-toxin (Staphylococcus aureus, UniProt P09616)
row,Binder,Kd [nM]
1,B1,0.4
2,B2,0.3
3,B3,0.4
4,B4,0.4
5,B5,0.8
6,B6,< 0.14
7,B7,< 0.14
8,B8,< 0.14
9,B9,< 0.14

# Target: T1, S. aureus alpha-toxin
# Remark: another data set of the same source
row,Binder,Kd [nM]
1,B10,330
2,B11,37
3,B12,280
4,B13,440
5,B14,440
6,B15,190
